For two substances, block of FAdV-4 infectivity in LMH cells (qPCR and block of FAdV-4 infection of LMH cells (qPCR results are on record in PMC7144210.

The target in assay [1] is Fc-tagged fibre 1 of the novel FAdV-4 (fowl adenovirus serotype 4 (FAdV-4), strain HLJFAd15).
For assay [2] the target is unchanged. This is another data set of the same source.

With “D2 domain of chicken CAR, soluble, His-tagged (domain or fragment)”, the block of FAdV-4 infectivity in LMH cells (qPCR at 24 hpi) after pre-incubation of the virus with 12.5 or 25.0 ng/μl D2-CAR; 78% at 12.5 ng/μl, 99.9% at 25 ng/μl in assay [1] came out at 99.9%.
On to “Fc-tagged CAR protein, soluble (Fc fusion)”, for which the block of FAdV-4 infection of LMH cells (qPCR at 24 hpi) after pre-incubation of the virus with 3.125–12.5 ng/μl soluble CAR protein; Fc protein as negative control in assay [2] was in the range of 76 to 80%.
